IntAct's records for PubMed 22135460

Legend:
[1] = biological target: rpos_ecoli rpoS (UniProt P13445)
[2] = biological target: rpod_ecoli rpoD (UniProt P00579)
[3] = biological target: T1, ltact_bpt4 33 (UniProt P13338)
T1 sequence: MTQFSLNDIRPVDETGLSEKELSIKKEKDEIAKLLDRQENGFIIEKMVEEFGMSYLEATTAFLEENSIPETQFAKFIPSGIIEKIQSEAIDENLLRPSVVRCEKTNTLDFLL

Sequence of rpos_ecoli rpoS (P13445 whole entry): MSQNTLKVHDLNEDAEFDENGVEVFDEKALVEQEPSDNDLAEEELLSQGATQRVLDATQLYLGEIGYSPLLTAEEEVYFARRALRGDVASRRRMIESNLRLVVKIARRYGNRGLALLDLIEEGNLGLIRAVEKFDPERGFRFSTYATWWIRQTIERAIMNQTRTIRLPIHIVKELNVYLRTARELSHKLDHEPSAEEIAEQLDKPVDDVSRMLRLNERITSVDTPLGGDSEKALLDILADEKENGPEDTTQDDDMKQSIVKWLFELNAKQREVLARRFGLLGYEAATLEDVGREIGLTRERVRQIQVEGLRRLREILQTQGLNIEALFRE
Sequence of rpod_ecoli rpoD (P00579 whole entry): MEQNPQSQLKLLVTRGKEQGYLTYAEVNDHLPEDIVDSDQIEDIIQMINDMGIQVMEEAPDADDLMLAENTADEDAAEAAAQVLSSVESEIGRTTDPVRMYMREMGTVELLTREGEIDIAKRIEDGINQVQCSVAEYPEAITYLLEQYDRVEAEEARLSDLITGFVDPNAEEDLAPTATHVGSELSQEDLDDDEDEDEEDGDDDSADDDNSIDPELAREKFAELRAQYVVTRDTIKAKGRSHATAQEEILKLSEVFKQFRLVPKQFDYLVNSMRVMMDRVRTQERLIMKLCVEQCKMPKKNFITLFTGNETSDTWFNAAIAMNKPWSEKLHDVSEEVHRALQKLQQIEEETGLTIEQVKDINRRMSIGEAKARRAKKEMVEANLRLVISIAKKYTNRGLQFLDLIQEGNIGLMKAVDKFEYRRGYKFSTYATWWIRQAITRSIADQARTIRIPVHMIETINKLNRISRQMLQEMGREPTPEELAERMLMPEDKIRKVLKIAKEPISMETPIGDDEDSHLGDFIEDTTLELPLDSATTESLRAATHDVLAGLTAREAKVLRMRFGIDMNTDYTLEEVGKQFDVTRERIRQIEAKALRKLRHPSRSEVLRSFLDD

DNA-directed RNA polymerase subunit beta (Escherichia coli (strain K12)) (from UniProt P0A8V2) E898A
effect of a mutation on the interaction [1]: decreasing interaction strength
effect of a mutation on the interaction [2]: disrupting interaction strength
effect of a mutation on the interaction [3]: disrupting interaction strength

DNA-directed RNA polymerase subunit beta (Escherichia coli (strain K12)) (from UniProt P0A8V2) E899A
effect of a mutation on the interaction [2]: decreasing interaction strength
effect of a mutation on the interaction [3]: disrupting interaction strength

DNA-directed RNA polymerase subunit beta (Escherichia coli (strain K12)) (from UniProt P0A8V2) F906A
effect of a mutation on the interaction [1]: decreasing interaction strength
effect of a mutation on the interaction [2]: disrupting interaction strength
effect of a mutation on the interaction [3]: disrupting interaction strength

DNA-directed RNA polymerase subunit beta (Escherichia coli (strain K12)) (from UniProt P0A8V2) I905A
effect of a mutation on the interaction [1]: decreasing interaction strength
effect of a mutation on the interaction [2]: disrupting interaction strength
effect of a mutation on the interaction [3]: disrupting interaction strength

DNA-directed RNA polymerase subunit beta (Escherichia coli (strain K12)) (from UniProt P0A8V2) K900A
effect of a mutation on the interaction [2]: disrupting interaction strength
effect of a mutation on the interaction [3]: disrupting interaction strength

DNA-directed RNA polymerase subunit beta (Escherichia coli (strain K12)) (from UniProt P0A8V2) K900E
effect of a mutation on the interaction [3]: disrupting interaction strength

DNA-directed RNA polymerase subunit beta (Escherichia coli (strain K12)) (from UniProt P0A8V2) L901A
effect of a mutation on the interaction [1]: disrupting interaction strength
effect of a mutation on the interaction [2]: disrupting interaction strength
effect of a mutation on the interaction [3]: disrupting interaction strength

DNA-directed RNA polymerase subunit beta (Escherichia coli (strain K12)) (from UniProt P0A8V2) L902A
effect of a mutation on the interaction [1]: decreasing interaction strength
effect of a mutation on the interaction [2]: disrupting interaction strength
effect of a mutation on the interaction [3]: disrupting interaction strength

DNA-directed RNA polymerase subunit beta (Escherichia coli (strain K12)) (from UniProt P0A8V2) R903A
effect of a mutation on the interaction [1]: decreasing interaction strength
effect of a mutation on the interaction [2]: decreasing interaction strength
effect of a mutation on the interaction [3]: disrupting interaction strength
